# Measurements reported in patent US20160046707A1 (EISAI R AND D MANAGEMENT, published 2016).
# T1: recombinant human XCL1 (human, UniProt P47992 23-114, limits assumed)
# T1 construct: also called Ltn
# T1 sequence (looked up): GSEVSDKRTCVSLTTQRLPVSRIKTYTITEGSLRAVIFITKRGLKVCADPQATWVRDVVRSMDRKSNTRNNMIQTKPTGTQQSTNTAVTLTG
# T2: recombinant human CCL5 (human, UniProt P13501 24-91)
# T2 construct: also called Rantes
# T2 sequence (looked up): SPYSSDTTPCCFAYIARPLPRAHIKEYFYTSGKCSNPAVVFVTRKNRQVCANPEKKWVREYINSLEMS
# T3: recombinant human CCL1 (human, UniProt P22362 24-96, limits assumed)
# T3 sequence (looked up): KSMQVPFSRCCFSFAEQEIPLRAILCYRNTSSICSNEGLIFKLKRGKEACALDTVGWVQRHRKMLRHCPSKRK
# T4: recombinant human CXCL16 (human, UniProt Q9H2A7 30-118, limits assumed)
# T4 sequence (looked up): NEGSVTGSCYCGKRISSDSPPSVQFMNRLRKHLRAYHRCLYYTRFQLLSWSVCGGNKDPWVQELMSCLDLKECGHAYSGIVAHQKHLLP
# T5: cynomolgus CCL20-secreted alkaline phosphatase (SEAP) fusion (cynomolgus monkey)
# T5 construct: also called cCCL20; cynomolgus CCL20-SEAP; not shown: the SEAP reporter (cDNA from Clontech pSEAP-Enhancer) and its junction to CCL20
# T5 chain: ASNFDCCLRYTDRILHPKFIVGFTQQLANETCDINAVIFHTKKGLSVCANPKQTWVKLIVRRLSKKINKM
# T6: mouse CCL20-secreted alkaline phosphatase (SEAP) fusion (mouse, UniProt O89093 28-97)
# T6 construct: Expressed in HEK293E, used as culture supernatant; also called SEAP-tagged mouse CCL20; mCCL20; not shown: secreted alkaline phosphatase (SEAP), cDNA from pSEAP-Enhancer vector (Clontech)
# T6 sequence: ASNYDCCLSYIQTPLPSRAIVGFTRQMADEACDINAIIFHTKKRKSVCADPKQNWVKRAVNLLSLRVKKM
# Assays:
# recombinant human XCL1 = biological target: T1, recombinant human XCL1; experiment: ELISA, plate-bound chemokine (1 ug/ml), antibody 10 ug/ml, OD450
# Method: (§1) The wells of a 96-well plate were coated with 1 μg/ml of the recombinant human chemokines in PBS (−). After overnight incubation at 4° C., the wells were blocked with 1× Block-Ace (Dainippon Sumitomo Pharma, UK-B80) for 1 hour at room temperature. After washing twice with 0.02% Tween 20/PBS (−), we added 50 μl of 10 μg/ml purified 36F7C10, chimeric 36F710, HC2/LK3, or HC2/LC3 in 0.02% Tween 20/PBS (−) to each well. The wells were incubated for 1 hour at room temperature and washed three times as described in Example 3. […] After washing five times, a TMBZ (3,3′,5,5′-tetramethylbenzidine) solution (1%, in N,N-Dimethylformamide) was added to the wells and incubated for 15-30 minutes. The reaction was stopped by adding an equal volume of a 2 M H₂SO₄ stopping solution, and the optical density was read at 450 nm by ARVO (PerkinElmer).
# recombinant human CCL13 = biological target: T7, recombinant human CCL13 (human, UniProt Q99616 24-98); experiment: as above
# T7 construct: also called MCP-4
# T7 sequence (Q99616 24-98 limits assumed): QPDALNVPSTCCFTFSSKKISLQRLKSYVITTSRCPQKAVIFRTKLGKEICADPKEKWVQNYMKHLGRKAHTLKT
# Method: as §1
# recombinant human CCL5 = biological target: T2, recombinant human CCL5; experiment: as above
# Method: as §1
# recombinant human CCL1 = biological target: T3, recombinant human CCL1; experiment: as above
# Method: as §1
# recombinant human CXCL16 = biological target: T4, recombinant human CXCL16; experiment: as above
# Method: as §1
# [1] = biological target: T5, cynomolgus CCL20-secreted alkaline …; experiment: SPR (Biacore), CCL20-SEAP captured by anti-SEAP, antibody injected (bivalent format), 1:1 Langmuir
# Method: We also used surface plasmon resonance (Biacore™) analysis to test whether HC2/LC3 and HC2/LK3 can bind to mouse, cynomolgus, or rhesus macaque CCL20 orthologs. Monoclonal mouse anti-human placental alkaline phosphatase was immobilized on all four flow cells of a CM5 chip at a flow rate of 25 μl/min. 25 μl of a 2 nM solution of human, rhesus, cynomolgus, or mouse CCL20-SEAP in HBS-EP buffer was injected over flow cell 2, 3, or 4. For antibody binding, 240 μl of 0-80 nM dilutions of HC2/LC3, HC2/LK3, or 2F5-5 MAb in HBS-EP buffer (or buffer alone) was injected over all four flow cells at a flow rate of 50 μl/min. Dissociation followed for 45 min. Flow cell 1 (anti-SEAP alone) was used as a reference for all flow cells. Regeneration of the flow cells was performed with 10 mM glycine at pH 2.25. Due to regeneration effects on the capturing capacity of the chips, antibody injections were performed sequentially from low to high concentration. Data fitting was performed using a 1:1 Langmuir model.
# In contrast, chimeric, HC2/LC3, and HC2/LK3 antibodies effectively bound to human, rhesus, and cynomolgus CCL20 (Table 17).
# [2] = biological target: T6, mouse CCL20-secreted alkaline …; experiment: ELISA (fluorescent HRP substrate): CCL20-SEAP captured on anti-alkaline phosphatase in 5-fold dilutions from 20 nM (x axis, nM), antibody at 1 ug/ml
# Method: To test whether the chimeric and humanized antibodies can bind to mouse, cynomolgus, or rhesus macaque CCL20 orthologs, we used ELISA assays as illustrated in FIG. 15. Recombinant secreted alkaline phosphatase (SEAP)-chemokine fusion proteins were engineered as described in Example 2, expressed and purified for all of the CCL20 orthologs tested. Nunc MaxiSorb flat-bottom black plates were coated with 1 μg/ml mouse anti-placental alkaline phosphatase antibody (Pierce, cat# MA1-19354) in 50 mM sodium bicarbonate, pH 9.4, overnight at 4° C. Plates were then blocked using 1× phosphate buffered saline with Tween-20 (PBST) with 5% bovine serum albumin (BSA) for 2 hours at room temperature. 20 nM SEAP-CCL20 fusion proteins were serially diluted 5-fold in Opti-MEM medium (Invitrogen). Chimeric and humanized (HC2/LC3 and HC2/LK3) antibodies were diluted to 1 μg/ml in 1×PBST with 5% BSA, added to the plates, and incubated for 1 hr at room temperature. The plates were then washed with 1×PBST with 5% BSA three times. […] QuantaBlu fluorescent HRP substrate (Pierce cat#15169) was added for detection of bound antibody by measuring fluorescence in a Molecular Devices M5 (Excitation 325 nm/Emission 420 nm) plate reader.
# While the hamster anti-mouse CCL20 antibody 2F5-5 MAb bound mouse CCL20 with a 50% effective dose (EC₅₀) of 64 pM (data not shown), neither the chimeric nor humanized anti-human CCL20 antibodies bound detectably to mouse CCL20 or rat CCL20 under the conditions described above. By contrast, both the chimeric and humanized antibodies effectively bound to human, rhesus, and cynomolgus CCL20 (FIGS. 16A-C, 17A and B).
Binder,binding result (recombinant human XCL1),binding result (recombinant human CCL13),binding result (recombinant human CCL5),binding result (recombinant human CCL1),binding result (recombinant human CXCL16),Kd [1] [nM],koff [1] [s⁻¹],kon [1] [M⁻¹ s⁻¹],binding result [2]
"mouse anti-human CCL20 monoclonal antibody 36F7C10 (antibody, V domains shown, Mouse hybridoma antibody; also called MouseMAb; parental mouse clone 36F7C10) VH: QVQLQQPGAELVKPGASVKMSCKASGYTFTNYWMHWVKQRPGQGLEWIGVIDPSDSYTTYNQKFKGKATLTVDTSSSTAYMQLSSLTSEDSAVYYCTRGNYGVDYAMDYWGQGTSVTVSS VL: DIQMTQSPASLSASVGETVTITCGASENIYGALNWYQRKQGKSPQLLIYGATNLADGMSSRFSGSGSGRQYSLKISSLHPDDVATYYCQNVLITPYTFGGGTKLEIK",no binding (tested: 10 ug/ml),no binding (tested: 10 ug/ml),no binding (tested: 10 ug/ml),no binding (tested: 10 ug/ml),no binding (tested: 10 ug/ml),,,,
"chimeric 36F7C10 antibody (36F7C10-hFc) (antibody, V domains shown, also called chimeric 36F710; Chimeric MAb) VH: QVQLQQPGAELVKPGASVKMSCKASGYTFTNYWMHWVKQRPGQGLEWIGVIDPSDSYTTYNQKFKGKATLTVDTSSSTAYMQLSSLTSEDSAVYYCTRGNYGVDYAMDYWGQGTSVTVSS VL: DIQMTQSPASLSASVGETVTITCGASENIYGALNWYQRKQGKSPQLLIYGATNLADGMSSRFSGSGSGRQYSLKISSLHPDDVATYYCQNVLITPYTFGGGTKLEIK",no binding (tested: 10 ug/ml),no binding (tested: 10 ug/ml),no binding (tested: 10 ug/ml),no binding (tested: 10 ug/ml),no binding (tested: 10 ug/ml),0.0132,5.04e-05,3.83e+06,no binding (tested: 20 nM)
"humanized anti-human CCL20 antibody 36LK3/36HC2 (antibody, human IgG1, kappa, V domains shown, expressed in HEK293 cells; also called HC2/LK3; HC2LK3) VH: QVQLVQSGAEVKKPGASVKVSCKASGYTFTNYWMHWVRQAPGQGLEWMGVIDPSDSYTTYAQKFQGRVTMTVDTSTSTVYMELSSLRSEDTAVYYCARGNYGVDYAMDYWGQGTLVTVSS VL: DIQMTQSPSSLSASVGDRVTITCGASENIYGALNWYQRKPGKAPKLLIYGATNLADGVPSRFSGSGSGRDYTLTISSLQPEDFATYYCQNVLITPYTFGQGTKLEIKR",no binding (tested: 10 ug/ml),no binding (tested: 10 ug/ml),no binding (tested: 10 ug/ml),no binding (tested: 10 ug/ml),no binding (tested: 10 ug/ml),0.0283,0.000149,5.28e+06,no binding (tested: 20 nM)
"humanized anti-human CCL20 antibody 36LC3/36HC2 (antibody, human IgG1, kappa, V domains shown, expressed in HEK293 cells; also called HC2/LC3; HC2LC3) VH: QVQLVQSGAEVKKPGASVKVSCKASGYTFTNYWMHWVRQAPGQGLEWMGVIDPSDSYTTYAQKFQGRVTMTVDTSTSTVYMELSSLRSEDTAVYYCARGNYGVDYAMDYWGQGTLVTVSS VL: DIQMTQSPSSLSASVGDRVTITCRASENIYGALNWYQQKPGKAPKLLIYGATNLADGVPSRFSGSGSGRQYSLTISSLQPEDFATYYCQNVLITPYTFGGGTKLEIKR",no binding (tested: 10 ug/ml),no binding (tested: 10 ug/ml),no binding (tested: 10 ug/ml),no binding (tested: 10 ug/ml),no binding (tested: 10 ug/ml),0.0155,0.000134,8.64e+06,no binding (tested: 20 nM)
